Where a chain is given by its changes, count along the chain named.
B1: 2F3#633 (antibody, V domains shown)
VH: EVQLLESGGGLVQPGGSLRLSCAASGFTFDSYAMSWVRQAPGKGLEWVSAISGSGASTYYADSVKGRFSISRDNSKNTLYLQMNSLRAEDTAVYYCAIRREYSGYTPFDYWGQGTLVTVSS
VL: DIVMTQTPSSLSASVGDRVTITCRASQGISSWLAWYQQKPEKAPRSLIYAASSLQSGVPSRFSGSGSGTDFTLTISSLQPEDFATYYCQQYISYPYTFGQGTKLEIK
B2: 2F3#1733 (antibody, V domains shown)
VH: B1 VH with E1Q, V2I, Q3T, L5R, A56H, S85N
VL: B1 VL
B3: 2F3#6 (antibody, V domains shown)
VH: B1 VH with E1Q, T106A, T118I
VL: B1 VL

Molecular target: dBSM (bovine)
Assay: ELISA

Binder | EC50 [nM]
B1 | 8.72
B2 | 13.6
B3 | 24.4

Reference: patent publication US20190111164A1 (published 2019)
